Laboratory results published in patent US20250074957A1 (GENERAL HOSPITAL, published 2025).

B1: minCRBN3-NLuc (other, not shown: large carriers)
chain: AGEGDQQDAAHNMGNHLPLLPESEEEDEMEVEDQDSKEAKKPNIINFDTSLPTSHTYLGADMEEFHGRTLHDDDSCQVIPVLPQVMMILIPGQTLPLQLFHPQEVSMVRNLIQKDRTFAVLAYSNVQEREAQFGTTAEIYAYREEQDFGIEIVKVKAIGRQRFKVLELRTQSDGIQQAKVQILPECVLPSTYDAETLMDRIKKQLREWDENLKDDSLPSNPIDFSYRVAACLPIDDVLRIQLLKIGSAIQRLRCELDIMNKCTSLCCKQCQETEITTKNEIFSLSLCGPMAAYVNPHGYVHETLTVYKACNLNLIGRPSTEHSWFPGYAWTVAQCKICASHIGWKFTATKKDMSPQKFWGLTRSALLPTIPDTEDEISPDKVILCL
notes: also called CRBNΔ3; cytosolic (untethered) minCRBN
B2: CRBN (wild-type; endogenous in Jurkat/293T cells or re-expressed in 293T-CRBNΔe5 cells) (other)
chain: MAGEGDQQDAAHNMGNHLPLLPAESEEEDEMEVEDQDSKEAKKPNIINFDTSLPTSHTYLGADMEEFHGRTLHDDDSCQVIPVLPQVMMILIPGQTLPLQLFHPQEVSMVRNLIQKDRTFAVLAYSNVQEREAQFGTTAEIYAYREEQDFGIEIVKVKAIGRQRFKVLELRTQSDGIQQAKVQILPECVLPSTMSAVQLESLNKCQIFPSKPVSREDQCSYKWWQKYQKRKFHCANLTSWPRWLYSLYDAETLMDRIKKQLREWDENLKDDSLPSNPIDFSYRVAACLPIDDVLRIQLLKIGSAIQRLRCELDIMNKCTSLCCKQCQETEITTKNEIFSLSLCGPMAAYVNPHGYVHETLTVYKACNLNLIGRPSTEHSWFPGYAWTVAQCKICASHIGWKFTATKKDMSPQKFWGLTRSALLPTIPDTEDEISPDKVILCL
B3: CRBN-Nanoluciferase (NLuc) (other, not shown: large carriers)
chain: B2 chain
notes: Expressed inside transfected 293T cells for NanoBRET (intracellular, not on the surface); also called wild-type CRBN; wtCRBN
B4: IKZF3 degron polypeptide, amino acids 130-189 A153M (HaloTag fusion for BRET) (other, not shown: large carriers)
chain: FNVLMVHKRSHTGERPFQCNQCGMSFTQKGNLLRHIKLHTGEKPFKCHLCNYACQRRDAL
notes: also called IKZF3 A153M; A153M-substituted form of the IKZF3 degron

What was measured:
IKZF3aa130-189-HaloTag = biological target: T1, IKZF3aa130-189-HaloTag (Homo sapiens, UniProt A2VDW9 130-189 (bovine entry)); assay: NanoBRET in 293T-CRBNΔe5 cells, pomalidomide dose-response; the Kd is a pomalidomide concentration
T1 construct: Expressed in transfected 293T cells for NanoBRET; labelled with HaloTag NanoBRET 618 ligand; also called IKZF3 degron; degron
Description: (§1) Cells were then trypsinized and seeded into 96 well plates, at 40,000 cells per well. The BRET assay was performed per manufacturer's instructions (Promega™). In brief, cells were incubated for 2 hours with varying concentrations of Pomalidomide or DMSO, 10 μM MG132, and 100 nM HaloTag NanoBRET 618 Ligand. NanoBRET Nano-Glo substrate was added and donor (460 nm) and acceptor (618 nm) emission were measured within 10 minutes (EnVision, Perkin Elmer). Mean corrected milliBRET units (mBU) was calculated.

[1] = biological target: IKZF3 degron-eGFP fusion (IKZF3 degron-GFP-IRES-mCherry reporter) (Homo sapiens, UniProt A2VDW9 130-189 (bovine entry)); assay: cell-based or functional assay
CD28-IKZF3 (eGFP fusion) = assay: cell-based or functional assay
[2] = biological target: CD28-CD3z-IKZF3 (eGFP fusion); assay: cell-based or functional assay
[3] = biological target: B3; assay: NanoBRET across a range of pomalidomide concentrations
Description: as §1

T1 sequence (A2VDW9 130-189): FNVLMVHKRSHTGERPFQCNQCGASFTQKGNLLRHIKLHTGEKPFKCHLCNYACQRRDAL
Chain of IKZF3 degron-eGFP fusion (IKZF3 degron-GFP-IRES-mCherry reporter) (A2VDW9 130-189): as above

Binder: B1
apparent Kd (pomalidomide-dependent dimerization) (IKZF3aa130-189-HaloTag): 30 nM

Binder: B2
EC50 of pomalidomide-dependent degradation (eGFP/mCherry ratio normalized to DMSO), Jurkat T cells [1]: 0.42 nM
EC50 of pomalidomide-dependent degradation (eGFP/mCherry ratio normalized to DMSO), Jurkat T cells (CD28-IKZF3 (eGFP fusion)): 23.5 nM
EC50 of pomalidomide-dependent degradation (eGFP/mCherry ratio normalized to DMSO), Jurkat T cells [2]: 8.2 nM

Binder: B3
apparent Kd (pomalidomide-dependent dimerization) (IKZF3aa130-189-HaloTag): 30 nM

Binder: B4
binding result [3]: binds
